In publication PMC7316729, “The cryo-EM structure of the bacterial flagellum cap complex suggests a molecular mechanism for filament elongation” (Nature Communications, 2020):
Where “and” joins values, the source holds several entries; their conditions need not be identical. Equal entries are not always repeated.

Assays:
[1] = target: the molecule itself; assay: negative-stain TEM with 2D classification; purified protein on carbon-coated copper grids, 0.75% uranyl formate; ~3500 particles for FliDsm and 2700 for FliDpa, 2D class averages
[2] = target: T1, FliD from Pseudomonas aeruginosa, full length (P. aeruginosa), Q9K3C5; assay: as above; settings: remark: other sources report otherwise
T1 chain: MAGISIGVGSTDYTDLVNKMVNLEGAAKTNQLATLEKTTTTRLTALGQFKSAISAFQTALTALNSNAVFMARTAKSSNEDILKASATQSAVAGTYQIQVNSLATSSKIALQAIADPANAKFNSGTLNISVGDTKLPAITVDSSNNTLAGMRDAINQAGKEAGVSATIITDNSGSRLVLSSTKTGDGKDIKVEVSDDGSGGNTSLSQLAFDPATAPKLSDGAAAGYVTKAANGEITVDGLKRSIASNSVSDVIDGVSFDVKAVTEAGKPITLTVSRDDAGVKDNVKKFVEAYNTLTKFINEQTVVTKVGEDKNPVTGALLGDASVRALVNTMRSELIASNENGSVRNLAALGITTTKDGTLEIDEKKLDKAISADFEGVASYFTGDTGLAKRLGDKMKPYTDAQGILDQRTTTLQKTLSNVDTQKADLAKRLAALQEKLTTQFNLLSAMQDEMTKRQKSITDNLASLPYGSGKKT

[3] = target: the molecule itself; assay: cryo-EM structure; purified FliDcj at 1 mg/ml vitrified on holey carbon grids; protein in 50 mM HEPES 150 mM NaCl pH 7; D5 symmetry (full map, 4.7 Å), C5 (head map, 5.0 Å)

B1: FliD from Serratia marcescens, full length (natural protein)
chain: MATISSLGLGSGLDLNGLLDKLTKAEQQRLTPYTTKQSSYNAQLTGYGTLKGALEKFDNLSKEMAKEDFFKATTATEHDAFKITTNAKAVPGNYVVEVNKLAQAQTLTTQAKVSDQGAKLGAEGVTDRSLTITAGNPPKETKIPLSDDQTSLVELRDAINGAKAGVTASIMRVGDNDYQLAVSSSTTGENNKISLQVDNDDQLGDILNYNATRGTGTAMKQTVAPQDAELTVNGTAIKRSTNSISDALQGVTIDLKTKTKTDEPQHLVISTNTAGTTDKIKEWVDSYNSLLDTFNALSKFTPVKTGEAPNPTNGPLLGDNTLRGIQSSIKSALSAAQDNPELKGLGNLGISTNTKTGKLEIDSAKLKKAMDEKPDQVSNFFVGNGKDTGMATEIHNEIQSYIKSGGIIENSTKSINTNLDRLNSQITTVTASIQNTIDRYKQQFVQLDTMMSKMNGTSNYLAQQFK
notes: FliD (flagellar cap protein) of Serratia marcescens; gene codon-optimised for E. coli, synthesised and sub-cloned into pET28a; The head domain of this protein is PDB 5XLJ (cited); also called FliDsm; source: E. coli BL21-CodonPlus(DE3)-RIL, purified (Ni-NTA, Superdex 200 SEC)
[1]
  stoichiometry N: 5

B2: FliD from Pseudomonas aeruginosa, full length, Q9K3C5 1-474 (natural protein)
chain: T1 chain
[2]
  percent of particles that are pentamers: 25.5%
  stoichiometry N: 5

B3: FliD from Campylobacter jejuni, full length (flagellum cap protein) (natural protein)
chain: MAFGSLSSLGFGSGVLTQDTIDKLKEAEQKARIDPYTKKIEENTTKQKDLTEIKTKLLSFQTAVSSLADATVFAKRKVVGSISDNPPASLTVNSGVALQSMNINVTQLAQKDVYQSKGLANDGGFVNAQLNGTADLTFFSNGKEYTVTVDKNTTYRDLADKINEASGGEIVAKIVNTGEKGTPYRLTLTSKETGEDSAISFYAGKKDSNGKYQKDINAEKIFDDLGWGLDVSASIDPDKDKKGYGIKDASLHIQTAQNAEFTLDGIKMFRSSNTVTDLGVGMTLTLNKTGEINFDVQQDFEGVTKAMQDLVDAYNDLVTNLNAATDYNSETGTKGTLQGISEVNSIRSSILADLFDSQVVDGTTEDANGNKVNTKVMLSMQDFGLSLNDAGTLSFDSSKFEQKVKEDPDSTESFFSNITKYEDINHTGEVIKTGSLSKYLNSNGGNTNGLEFKPGDFTIVFNNQTYDLSKNSDGTNFKLTGKTEEELLQNLANHINSKGIEGLKVKVESYNQNNVTGFRLNFSGDGSSDFSIKGDANILKELGLSDVNITSKPIEGKGIFSKLKATLQEMTGKDGSITKYDESLTNDIKSLNTSKDSTQAMIDTRYDTMANQWLQYESILNKLNQQLNTVTNMINAANNSNN
notes: FliD (flagellar cap protein, HAP2) of Campylobacter jejuni; gene codon-optimised for E. coli, synthesised and sub-cloned into pET28a; printed numbering runs to residue 643 (C-terminus 577-643); The D4 domain was not built in the model 6SIH; also called FliDcj; HAP2; source: E. coli BL21-CodonPlus(DE3)-RIL, purified (Ni-NTA, Superdex 200 SEC)
[3]
  stoichiometry N: 10 and 5
